Results from patent US20110118131A1 (published 2011).

Molecular target: T1, IL-1β (UniProt P01584 117-269)
T1 construct: Antigen of XPA23
Experiment: Biacore, Fab periplasmic extract

fold difference in affinity against the original | Binder
0.84 fold | XPA23 heavy chain S105A (Fab, V domains shown, Fab, periplasmic extract; also called C5A S105A) VH: EVQLLESGGGLVQPGGSLRLSCAASGFTFSKYFMFWVRQAPGKGLEWVSVISPSGGMTRYADSVKGRFTISRDNSKNTLYLQMNSLRAEDTAVYYCARVGYGGNADYWGQGTLVTVSS VL: DIQMTQSPSSVSASVGDRLTIICRASQDINRWLAWYQQTPGNAPKLLIHSATSLQSGVPSRFSGSGSGTDFTLTINSLQPEDFATYYCQQADSFPLTFGGGTKVEIK
1.41 fold | XPA23 heavy chain S105P (Fab, V domains shown, Fab, periplasmic extract; also called C5A S105P) VH: EVQLLESGGGLVQPGGSLRLSCAASGFTFSKYFMFWVRQAPGKGLEWVSVISPSGGMTRYADSVKGRFTISRDNSKNTLYLQMNSLRAEDTAVYYCARVGYGGNPDYWGQGTLVTVSS VL: DIQMTQSPSSVSASVGDRLTIICRASQDINRWLAWYQQTPGNAPKLLIHSATSLQSGVPSRFSGSGSGTDFTLTINSLQPEDFATYYCQQADSFPLTFGGGTKVEIK
0.09 fold | XPA23 heavy chain V50A (Fab, V domains shown, Fab, periplasmic extract; also called C5A V50A) VH: EVQLLESGGGLVQPGGSLRLSCAASGFTFSKYFMFWVRQAPGKGLEWVSAISPSGGMTRYADSVKGRFTISRDNSKNTLYLQMNSLRAEDTAVYYCARVGYGGNSDYWGQGTLVTVSS VL: DIQMTQSPSSVSASVGDRLTIICRASQDINRWLAWYQQTPGNAPKLLIHSATSLQSGVPSRFSGSGSGTDFTLTINSLQPEDFATYYCQQADSFPLTFGGGTKVEIK
0.99 fold | XPA23 heavy chain T58V (Fab, V domains shown, Fab, periplasmic extract; also called C5A T58V) VH: EVQLLESGGGLVQPGGSLRLSCAASGFTFSKYFMFWVRQAPGKGLEWVSVISPSGGMVRYADSVKGRFTISRDNSKNTLYLQMNSLRAEDTAVYYCARVGYGGNSDYWGQGTLVTVSS VL: DIQMTQSPSSVSASVGDRLTIICRASQDINRWLAWYQQTPGNAPKLLIHSATSLQSGVPSRFSGSGSGTDFTLTINSLQPEDFATYYCQQADSFPLTFGGGTKVEIK
0.1 fold | XPA23 heavy chain V50I (Fab, V domains shown, Fab, periplasmic extract; also called C5A V50I) VH: EVQLLESGGGLVQPGGSLRLSCAASGFTFSKYFMFWVRQAPGKGLEWVSIISPSGGMTRYADSVKGRFTISRDNSKNTLYLQMNSLRAEDTAVYYCARVGYGGNSDYWGQGTLVTVSS VL: DIQMTQSPSSVSASVGDRLTIICRASQDINRWLAWYQQTPGNAPKLLIHSATSLQSGVPSRFSGSGSGTDFTLTINSLQPEDFATYYCQQADSFPLTFGGGTKVEIK
0.95 fold | XPA23 heavy chain T58L (Fab, V domains shown, Fab, periplasmic extract; also called C5A T58L) VH: EVQLLESGGGLVQPGGSLRLSCAASGFTFSKYFMFWVRQAPGKGLEWVSVISPSGGMLRYADSVKGRFTISRDNSKNTLYLQMNSLRAEDTAVYYCARVGYGGNSDYWGQGTLVTVSS VL: DIQMTQSPSSVSASVGDRLTIICRASQDINRWLAWYQQTPGNAPKLLIHSATSLQSGVPSRFSGSGSGTDFTLTINSLQPEDFATYYCQQADSFPLTFGGGTKVEIK
0.95 fold | XPA23 heavy chain T58I (Fab, V domains shown, Fab, periplasmic extract; also called C5A T58I) VH: EVQLLESGGGLVQPGGSLRLSCAASGFTFSKYFMFWVRQAPGKGLEWVSVISPSGGMIRYADSVKGRFTISRDNSKNTLYLQMNSLRAEDTAVYYCARVGYGGNSDYWGQGTLVTVSS VL: DIQMTQSPSSVSASVGDRLTIICRASQDINRWLAWYQQTPGNAPKLLIHSATSLQSGVPSRFSGSGSGTDFTLTINSLQPEDFATYYCQQADSFPLTFGGGTKVEIK
0.07 fold | XPA23 heavy chain S105I (Fab, V domains shown, Fab, periplasmic extract; also called C5A S105I) VH: EVQLLESGGGLVQPGGSLRLSCAASGFTFSKYFMFWVRQAPGKGLEWVSVISPSGGMTRYADSVKGRFTISRDNSKNTLYLQMNSLRAEDTAVYYCARVGYGGNIDYWGQGTLVTVSS VL: DIQMTQSPSSVSASVGDRLTIICRASQDINRWLAWYQQTPGNAPKLLIHSATSLQSGVPSRFSGSGSGTDFTLTINSLQPEDFATYYCQQADSFPLTFGGGTKVEIK
0.08 fold | XPA23 heavy chain S105V (Fab, V domains shown, Fab, periplasmic extract; also called C5A S105V) VH: EVQLLESGGGLVQPGGSLRLSCAASGFTFSKYFMFWVRQAPGKGLEWVSVISPSGGMTRYADSVKGRFTISRDNSKNTLYLQMNSLRAEDTAVYYCARVGYGGNVDYWGQGTLVTVSS VL: DIQMTQSPSSVSASVGDRLTIICRASQDINRWLAWYQQTPGNAPKLLIHSATSLQSGVPSRFSGSGSGTDFTLTINSLQPEDFATYYCQQADSFPLTFGGGTKVEIK
0.12 fold | XPA23 heavy chain S105G (Fab, V domains shown, Fab, periplasmic extract; also called C5A S105G) VH: EVQLLESGGGLVQPGGSLRLSCAASGFTFSKYFMFWVRQAPGKGLEWVSVISPSGGMTRYADSVKGRFTISRDNSKNTLYLQMNSLRAEDTAVYYCARVGYGGNGDYWGQGTLVTVSS VL: DIQMTQSPSSVSASVGDRLTIICRASQDINRWLAWYQQTPGNAPKLLIHSATSLQSGVPSRFSGSGSGTDFTLTINSLQPEDFATYYCQQADSFPLTFGGGTKVEIK
0.14 fold | XPA23 heavy chain T58A (Fab, V domains shown, Fab, periplasmic extract; also called C5A T58A) VH: EVQLLESGGGLVQPGGSLRLSCAASGFTFSKYFMFWVRQAPGKGLEWVSVISPSGGMARYADSVKGRFTISRDNSKNTLYLQMNSLRAEDTAVYYCARVGYGGNSDYWGQGTLVTVSS VL: DIQMTQSPSSVSASVGDRLTIICRASQDINRWLAWYQQTPGNAPKLLIHSATSLQSGVPSRFSGSGSGTDFTLTINSLQPEDFATYYCQQADSFPLTFGGGTKVEIK
0.03 fold | XPA23 heavy chain V50G (Fab, V domains shown, Fab, periplasmic extract; also called C5A V50G) VH: EVQLLESGGGLVQPGGSLRLSCAASGFTFSKYFMFWVRQAPGKGLEWVSGISPSGGMTRYADSVKGRFTISRDNSKNTLYLQMNSLRAEDTAVYYCARVGYGGNSDYWGQGTLVTVSS VL: DIQMTQSPSSVSASVGDRLTIICRASQDINRWLAWYQQTPGNAPKLLIHSATSLQSGVPSRFSGSGSGTDFTLTINSLQPEDFATYYCQQADSFPLTFGGGTKVEIK
1.81 fold | XPA23 heavy chain T58P (Fab, V domains shown, Fab, periplasmic extract; also called C5A T58P) VH: EVQLLESGGGLVQPGGSLRLSCAASGFTFSKYFMFWVRQAPGKGLEWVSVISPSGGMPRYADSVKGRFTISRDNSKNTLYLQMNSLRAEDTAVYYCARVGYGGNSDYWGQGTLVTVSS VL: DIQMTQSPSSVSASVGDRLTIICRASQDINRWLAWYQQTPGNAPKLLIHSATSLQSGVPSRFSGSGSGTDFTLTINSLQPEDFATYYCQQADSFPLTFGGGTKVEIK
0.11 fold | XPA23 heavy chain S105T (Fab, V domains shown, Fab, periplasmic extract; also called C5A S105T) VH: EVQLLESGGGLVQPGGSLRLSCAASGFTFSKYFMFWVRQAPGKGLEWVSVISPSGGMTRYADSVKGRFTISRDNSKNTLYLQMNSLRAEDTAVYYCARVGYGGNTDYWGQGTLVTVSS VL: DIQMTQSPSSVSASVGDRLTIICRASQDINRWLAWYQQTPGNAPKLLIHSATSLQSGVPSRFSGSGSGTDFTLTINSLQPEDFATYYCQQADSFPLTFGGGTKVEIK
0.95 fold | XPA23 heavy chain T58G (Fab, V domains shown, Fab, periplasmic extract; also called C5A T58G) VH: EVQLLESGGGLVQPGGSLRLSCAASGFTFSKYFMFWVRQAPGKGLEWVSVISPSGGMGRYADSVKGRFTISRDNSKNTLYLQMNSLRAEDTAVYYCARVGYGGNSDYWGQGTLVTVSS VL: DIQMTQSPSSVSASVGDRLTIICRASQDINRWLAWYQQTPGNAPKLLIHSATSLQSGVPSRFSGSGSGTDFTLTINSLQPEDFATYYCQQADSFPLTFGGGTKVEIK
